From patent US20170306033A1 (Amgen, published 2017)
Where a chain is given by its changes, count along the chain named.

T1: human PAC1 receptor (human, UniProt P41586 21-468)
T1 sequence: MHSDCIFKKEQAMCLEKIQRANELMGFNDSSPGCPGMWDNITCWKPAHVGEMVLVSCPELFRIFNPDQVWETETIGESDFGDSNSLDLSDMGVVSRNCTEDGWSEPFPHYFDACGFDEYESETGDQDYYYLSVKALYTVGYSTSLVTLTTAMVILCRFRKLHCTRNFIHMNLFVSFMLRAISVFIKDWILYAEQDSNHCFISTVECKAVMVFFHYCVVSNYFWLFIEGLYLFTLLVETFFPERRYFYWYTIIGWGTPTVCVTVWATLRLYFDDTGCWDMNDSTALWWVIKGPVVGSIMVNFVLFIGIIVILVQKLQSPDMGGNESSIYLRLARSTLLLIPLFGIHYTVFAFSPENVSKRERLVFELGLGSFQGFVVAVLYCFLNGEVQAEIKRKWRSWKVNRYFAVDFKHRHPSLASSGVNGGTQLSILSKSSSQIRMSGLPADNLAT

B1: iPS:327733 (bispecific antibody, human IgG1, kappa, lambda, N297G)
light 1: DIQLTQSPSFLSASVGDRVTITCRASQSIGRSLHWYQQKPGKAPKLLIKYASQSLSGVPSRFSGSGSGTEFTLTISSLQPEDFATYYCHQSSRLPFTFGPGTKVDIKRTVAAPSVFIFPPSDEQLKSGTASVVCLLNNFYPREAKVQWKVDNALQSGNSQESVTEQDSKDSTYSLESTLTLSKADYEKHKVYACEVTHQGLSSPVTKSFNRGEC
heavy 1: not shown
light 2: QSVLTQPPSVSAAPGQKVTISCSGSSSNIGNNYVSWYQQLPGTAPKLLIYDNNKRPSGIPDRFSGSKSGTSATLGITGLQTGDEADYYCGTWDSRLSAVVFGGGTKLTVLGQPKANPTVTLFPPSSEELQANKATLVCLISDFYPGAVTVAWKADGSPVKAGVETTKPSKQSNNKYAAKSYLSLTPEQWKSHRSYSCQVTHEGSTVEKTVAPTECS
heavy 2: QVQLVESGGGVVQPGRSLRLSCAASGFTFSSFGMHWVRQAPGKGLEWVAVISFDGSIKYSVDSVKGRFTISRDNSKNTLFLQMNSLRAEDTAVYYCARDRLNYYESSGYYHYKYYGMAVWGQGTTVTVSSASTKGPSVFPLAPSSKSTSGGTAALGCLVKDYFPEPVTVSWNSGALTSGVHTFPAVLQSSGLYSLESVVTVPSSSLGTQTYICNVNHKPSNTKVDKKVEPKSCDKTHTCPPCPAPELLGGPSVFLFPPKPKDTLMISRTPEVTCVVVDVSHEDPEVKFNWYVDGVEVHNAKTKPCEEQYGSTYRCVSVLTVLHQDWLNGKEYKCKVSNKALPAPIEKTISKAKGQPREPQVYTLPPSRKEMTKNQVSLTCLVKGFYPSDIAVEWESNGQPENNYKTTPPVLKSDGSFFLYSKLTVDKSRWQQGNVFSCSVMHEALHNHYTQKSLSLSPGK
B2: iPS:327736 (bispecific antibody, human IgG1, kappa, lambda, N297G)
light 1: not shown
heavy 1: not shown
light 2: B1 light 2 with G103K
heavy 2: B1 heavy 2 with G44E
B3: iPS:327738 (bispecific antibody, human IgG1, kappa, lambda, N297G)
light 1: EIVLTQSPATLSLSPGERATLSCRASQSVGRSLHWYQQKPGQAPRLLIKYASQSLSGIPARFSGSGSGTDFTLTISSLEPEDFAVYYCHQSSRLPFTFGEGTKVDIKRTVAAPSVFIFPPSDEQLKSGTASVVCLLNNFYPREAKVQWKVDNALQSGNSQESVTEQDSKDSTYSLESTLTLSKADYEKHKVYACEVTHQGLSSPVTKSFNRGEC
heavy 1: not shown
light 2: B1 light 2 with G103K
heavy 2: B1 heavy 2 with G44E
B4: iPS:327725 (bispecific antibody, human IgG1, kappa, lambda, N297G)
light 1: B1 light 1 with P100E
heavy 1: not shown
light 2: B1 light 2 with G75A, G103K
heavy 2: B1 heavy 2 with G44E, E105D
B5: iPS:327737 (bispecific antibody, human IgG1, kappa, lambda, N297G)
light 1: B1 light 1 with P100E
heavy 1: not shown
light 2: B1 light 2 with G103K
heavy 2: B1 heavy 2 with G44E
B6: iPS:327724 (bispecific antibody, human IgG1, kappa, lambda, N297G)
light 1: not shown
heavy 1: not shown
light 2: B1 light 2 with G75A, G103K
heavy 2: B1 heavy 2 with G44E, E105D
B7: iPS:327728 (bispecific antibody, human IgG1, kappa, lambda, N297G)
light 1: not shown
heavy 1: not shown
light 2: B1 light 2 with G75A
heavy 2: B1 heavy 2 with E105D, E370K
B8: iPS:327726 (bispecific antibody, human IgG1, kappa, lambda, N297G)
light 1: B3 light 1
heavy 1: not shown
light 2: B1 light 2 with G75A, G103K
heavy 2: B1 heavy 2 with G44E, E105D
B9: iPS:326663 (bispecific antibody, human IgG2, kappa)
light 1: B1 light 1
heavy 1: QVQLVESGAEVVKPGASVKVSCKASGFTFSRFAMHWVRQAPGQGLEWMGVISYDGGNKYYAESVKGRVTMTRDTSTSTLYMELSSLRSEDTAVYYCARGYDVLTGYPDYWGQGTLVTVSSASTKGPSVFPLAPCSRSTSESTAALGCLVKDYFPEPVTVSWNSGALTSGVHTFPAVLQSSGLYSLKSVVTVPSSNFGTQTYTCNVDHKPSNTKVDKTVERKCCVECPPCPAPPVAGPSVFLFPPKPKDTLMISRTPEVTCVVVDVSHEDPEVQFNWYVDGVEVHNAKTKPREEQFNSTFRVVSVLTVVHQDWLNGKEYKCKVSNKGLPAPIEKTISKTKGQPREPQVYTLPPSREEMTKNQVSLTCLVDGFYPSDIAVEWESNGQPENNYDTTPPMLDSDGSFFLYSDLTVDKSRWQQGNVFSCSVMHEALHNHYTQKSLSLSPGK
light 2: EIVLTQSPGTLSLSPGERATLSCRASQSVSSGYLTWYQQKPGQAPRLLIYGASSRATGIPDRFSGSGSGTDFTLTISRLEPEDFAVYYCQQYGNSLSRFGQGTKLEIKRTVAAPSVFIFPPSDEQLKSGTASVVCLLNNFYPREAKVQWKVDNALQSGNSQESVTEQDSKDSTYSLKSTLTLSKADYEKHKVYACEVTHQGLSSPVTKSFNRGEC
heavy 2: QVQLVESGGGVVQPGRSLRLSCAASGFTFSSYGMHWVRQAPGKGLEWVAVIWYDGSNKYYADSVKGRFIISRDKSKNTLYLQMNSLRAEDTAVYYCARAGGIAAAGLYYYYGMDVWGQGTTVTVSSASTKGPSVFPLAPCSRSTSESTAALGCLVKDYFPEPVTVSWNSGALTSGVHTFPAVLQSSGLYSLESVVTVPSSNFGTQTYTCNVDHKPSNTKVDKTVERKCCVECPPCPAPPVAGPSVFLFPPKPKDTLMISRTPEVTCVVVDVSHEDPEVQFNWYVDGVEVHNAKTKPREEQFNSTFRVVSVLTVVHQDWLNGKEYKCKVSNKGLPAPIEKTISKTKGQPREPQVYTLPPSRKKMTKNQVSLTCLVKGFYPSDIAVEWESNGQPENNYKTTPPMLKSDGSFFLYSKLTVDKSRWQQGNVFSCSVMHEALHNHYTQKSLSLSPGK
B10: iPS:327734 (bispecific antibody, human IgG1, kappa, lambda, N297G)
light 1: B3 light 1 with E100P
heavy 1: not shown
light 2: B1 light 2
heavy 2: B1 heavy 2
B11: iPS:327739 (bispecific antibody, human IgG1, kappa, lambda, N297G)
light 1: not shown
heavy 1: not shown
light 2: B1 light 2
heavy 2: B1 heavy 2 with E370K
B12: iPS:327735 (bispecific antibody, human IgG1, kappa, lambda, N297G)
light 1: DIQMTQSPSSLSASVGDRITITCRASQSISRYLNWYQQKPGKAPKLLIYAASSLQSGIPSRFSGSGSGTDFTLTINSLQPEDFATYFCQQSYSPPFTFGEGTKVDIKRTVAAPSVFIFPPSDEQLKSGTASVVCLLNNFYPREAKVQWKVDNALQSGNSQESVTEQDSKDSTYSLESTLTLSKADYEKHKVYACEVTHQGLSSPVTKSFNRGEC
heavy 1: not shown
light 2: B1 light 2 with G103K
heavy 2: B1 heavy 2 with G44E
B13: iPS:327727 (bispecific antibody, human IgG1, kappa, lambda, N297G)
light 1: not shown
heavy 1: not shown
light 2: B1 light 2 with G75A
heavy 2: B1 heavy 2 with E105D, E370K

Molecular target: human CGRP receptor (human, UniProt Q16602 23-461; O60894 27-148)
Sequence (Q16602 23-461 limits assumed, chain 1 of 2): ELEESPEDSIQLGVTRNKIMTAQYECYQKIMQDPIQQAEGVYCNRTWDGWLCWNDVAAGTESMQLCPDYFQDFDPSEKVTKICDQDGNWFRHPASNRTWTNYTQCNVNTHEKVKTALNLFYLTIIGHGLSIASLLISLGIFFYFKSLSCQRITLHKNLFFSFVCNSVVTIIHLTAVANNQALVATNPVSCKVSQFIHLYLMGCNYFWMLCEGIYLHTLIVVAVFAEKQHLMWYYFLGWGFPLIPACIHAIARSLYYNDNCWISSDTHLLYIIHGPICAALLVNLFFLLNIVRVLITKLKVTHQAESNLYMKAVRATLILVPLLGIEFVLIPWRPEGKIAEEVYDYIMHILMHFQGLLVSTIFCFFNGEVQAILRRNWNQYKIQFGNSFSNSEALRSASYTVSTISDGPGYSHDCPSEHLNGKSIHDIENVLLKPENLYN
Sequence (O60894 27-148 limits assumed, chain 2 of 2): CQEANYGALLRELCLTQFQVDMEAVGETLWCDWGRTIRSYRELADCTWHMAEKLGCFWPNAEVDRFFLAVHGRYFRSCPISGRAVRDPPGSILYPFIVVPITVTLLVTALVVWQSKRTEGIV
Assay: cell-based or functional assay

Row | % inhibition of human CGRPR [%] | Binder
1 | 84 | B1
2 | 88 | B2
3 | 85 | B3
4 | 86 | B4
5 | 82 | B5
6 | 80 | B6
7 | 80 | B7
8 | 91 | B8
9 | 64 | B9
10 | 82 | B10
11 | 79 | B11
12 | 81 | B12
13 | 93 | B13

Molecular target: T1, human PAC1 receptor
Assay: cell-based or functional assay

Row | % inhibition of human PAC1 [%] | Binder
14 | 66 | B1
15 | 20 | B2
16 | 93 | B3
17 | 39 | B4
18 | 54 | B5
19 | 33 | B6
20 | 79 | B7
21 | 77 | B8
22 | 62 | B9
23 | 99 | B10
24 | 76 | B11
25 | 68 | B12
26 | 93 | B13
